Key:
Assay in all cases: cell-based or functional assay
[1] = biological target: hGLP-1R (Homo sapiens, UniProt P43220)
[2] = biological target: T1, human GIP receptor (human) (UniProt P48546)
T1 sequence (looked up): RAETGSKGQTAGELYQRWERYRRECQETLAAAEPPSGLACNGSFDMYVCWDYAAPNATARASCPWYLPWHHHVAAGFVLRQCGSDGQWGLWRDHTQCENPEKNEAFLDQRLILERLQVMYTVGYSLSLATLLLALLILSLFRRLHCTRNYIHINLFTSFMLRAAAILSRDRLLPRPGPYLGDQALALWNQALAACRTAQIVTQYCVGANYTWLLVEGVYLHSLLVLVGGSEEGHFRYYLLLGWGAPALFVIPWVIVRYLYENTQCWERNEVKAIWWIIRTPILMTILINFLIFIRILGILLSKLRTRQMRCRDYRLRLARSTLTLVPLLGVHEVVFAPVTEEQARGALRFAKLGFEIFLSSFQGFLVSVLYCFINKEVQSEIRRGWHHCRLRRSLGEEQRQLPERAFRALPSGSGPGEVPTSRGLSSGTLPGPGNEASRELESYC

[3] = biological target: human glucagon receptor (human) (UniProt P47871)
Sequence of human glucagon receptor (human) (P47871 26-477): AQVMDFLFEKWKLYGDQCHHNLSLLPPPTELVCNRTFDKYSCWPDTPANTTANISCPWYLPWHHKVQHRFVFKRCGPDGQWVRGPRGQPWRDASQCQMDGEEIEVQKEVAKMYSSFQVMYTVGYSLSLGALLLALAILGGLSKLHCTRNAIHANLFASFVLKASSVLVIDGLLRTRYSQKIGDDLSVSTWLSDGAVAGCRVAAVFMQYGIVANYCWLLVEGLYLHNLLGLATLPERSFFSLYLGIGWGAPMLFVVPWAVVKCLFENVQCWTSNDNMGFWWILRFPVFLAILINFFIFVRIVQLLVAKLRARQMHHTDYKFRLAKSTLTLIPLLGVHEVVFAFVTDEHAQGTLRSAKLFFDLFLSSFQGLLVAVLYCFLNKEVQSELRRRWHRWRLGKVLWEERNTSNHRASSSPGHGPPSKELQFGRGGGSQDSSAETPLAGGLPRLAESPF

Sequence of hGLP-1R (P43220 24-463): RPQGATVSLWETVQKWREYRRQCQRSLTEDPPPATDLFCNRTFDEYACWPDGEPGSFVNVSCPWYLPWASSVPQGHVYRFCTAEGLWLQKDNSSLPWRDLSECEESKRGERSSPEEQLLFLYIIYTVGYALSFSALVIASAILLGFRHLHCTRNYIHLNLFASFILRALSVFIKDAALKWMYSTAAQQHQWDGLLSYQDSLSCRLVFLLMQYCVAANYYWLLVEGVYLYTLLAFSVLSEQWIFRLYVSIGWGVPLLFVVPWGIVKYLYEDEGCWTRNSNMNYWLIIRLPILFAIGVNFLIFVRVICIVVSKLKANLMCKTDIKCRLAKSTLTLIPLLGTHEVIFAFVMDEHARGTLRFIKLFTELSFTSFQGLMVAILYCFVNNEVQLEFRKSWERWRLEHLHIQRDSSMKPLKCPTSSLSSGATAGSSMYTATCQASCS

B1: Example 269 (peptide)
chain: YXQGTFTSDFSXXLDKKAQXAFIEWLLEGGHSSGAPPPSGH
modifications: synthetic construct; SITE 2: note = 2-Aminoisobutyric Acid; SITE 12: note = L-ornithine; SITE 13: note = alpha-methyl-leucine; SITE 17: note = Lysine is chemically modified through conjugation of the epsilon-amino group of the Lysine side chain with (2-[2-(2-Amino-ethoxy)-ethoxy]-acetyl)-(gamma-Glu)
[1]
  Relative cAMP EC50: 3.23 nM
  cAMP Rel EC50 (in the presence of 1% HSA): 428 nM
[2]
  Relative cAMP EC50: 0.288 nM
  cAMP Rel EC50 (in the presence of 1% HSA): 21.9 nM
[3]
  Relative cAMP EC50: 7.69 nM
  cAMP Rel EC50 (in the presence of 1% HSA): 1100 nM

B2: Example 272 (peptide)
chain: YXQGTFTSDFSXXLDKKAQXAFIEWLLEGGSSSGAPPPGGT
modifications: synthetic construct; SITE 2: note = 2-Aminoisobutyric Acid; SITE 12: note = L-ornithine; SITE 13: note = alpha-methyl-leucine; SITE 17: note = Lysine is chemically modified through conjugation of the epsilon-amino group of the Lysine side chain with (2-[2-(2-Amino-ethoxy)-ethoxy]-acetyl)-(gamma-Glu)
[1]
  Relative cAMP EC50: 2.62 nM
  cAMP Rel EC50 (in the presence of 1% HSA): 486 nM
[2]
  Relative cAMP EC50: 0.254 nM
  cAMP Rel EC50 (in the presence of 1% HSA): 36.3 nM
[3]
  Relative cAMP EC50: 7.91 nM
  cAMP Rel EC50 (in the presence of 1% HSA): 1540 nM

B3: Example 270 (peptide)
chain: YXQGTFTSDFSXXLDKKAQXAFIEWLLEGGSSSGAPPPSGH
modifications: synthetic construct; SITE 2: note = 2-Aminoisobutyric Acid; SITE 12: note = L-ornithine; SITE 13: note = alpha-methyl-leucine; SITE 17: note = Lysine is chemically modified through conjugation of the epsilon-amino group of the Lysine side chain with (2-[2-(2-Amino-ethoxy)-ethoxy]-acetyl)-(gamma-Glu)
[1]
  Relative cAMP EC50: 3.2 nM
  cAMP Rel EC50 (in the presence of 1% HSA): 658 nM
[2]
  Relative cAMP EC50: 0.26 nM
  cAMP Rel EC50 (in the presence of 1% HSA): 36.5 nM
[3]
  Relative cAMP EC50: 5 nM
  cAMP Rel EC50 (in the presence of 1% HSA): 1060 nM

B4: Example 273 (peptide)
chain: YXQGTFTSDFSXXLDKKAQXAFIEWLLEGGHSSGAPPPGGE
modifications: synthetic construct; SITE 2: note = 2-Aminoisobutyric Acid; SITE 12: note = L-ornithine; SITE 13: note = alpha-methyl-leucine; SITE 17: note = Lysine is chemically modified through conjugation of the epsilon-amino group of the Lysine side chain with (2-[2-(2-Amino-ethoxy)-ethoxy]-acetyl)-(gamma-Glu)
[1]
  Relative cAMP EC50: 4.02 nM
  cAMP Rel EC50 (in the presence of 1% HSA): 516 nM
[2]
  Relative cAMP EC50: 0.243 nM
  cAMP Rel EC50 (in the presence of 1% HSA): 21.8 nM
[3]
  Relative cAMP EC50: 6.96 nM
  cAMP Rel EC50 (in the presence of 1% HSA): 1770 nM

B5: Example 274 (peptide)
chain: YXQGTFTSDXSXXLDKKAQXAFIEYLLEAGPSSGAPPPSGX
modifications: synthetic construct; SITE 2: note = 2-Aminoisobutyric Acid; SITE 10: note = 3-(4-Pyridyl)-L-alanine; SITE 12: note = L-ornithine; SITE 13: note = alpha-methyl-leucine; SITE 17: note = Lysine is chemically modified through conjugation of the epsilon-amino group of the Lysine side chain with (2-[2-(2-
[1]
  Relative cAMP EC50: 4.9 nM
  cAMP Rel EC50 (in the presence of 1% HSA): 560 nM
[2]
  Relative cAMP EC50: 0.296 nM
  cAMP Rel EC50 (in the presence of 1% HSA): 27.6 nM
[3]
  Relative cAMP EC50: 9.37 nM
  cAMP Rel EC50 (in the presence of 1% HSA): 1120 nM

B6: Example 277 (peptide)
chain: YXQGTFTSDFSXXLDKKAQXAFIEYLLEXGPSSGAPPPSGX
modifications: synthetic construct; SITE 2: note = 2-Aminoisobutyric Acid; SITE 12: note = L-ornithine; SITE 13: note = alpha-methyl-leucine; SITE 17: note = Lysine is chemically modified through conjugation of the epsilon-amino group of the Lysine side chain with (gamma-Glu)-(2-[2-(2-Amino-ethoxy)-ethoxy]-acetyl)
[1]
  Relative cAMP EC50: 5.56 nM
  cAMP Rel EC50 (in the presence of 1% HSA): 639 nM
[2]
  Relative cAMP EC50: 0.0672 nM
  cAMP Rel EC50 (in the presence of 1% HSA): 13.3 nM
[3]
  Relative cAMP EC50: 10.6 nM
  cAMP Rel EC50 (in the presence of 1% HSA): 1690 nM

B7: Example 271 (peptide)
chain: YXQGTFTSDFSXXLDKKAQXAFIEWLLEGGHSSGAPPPGGE
modifications: synthetic construct; SITE 2: note = 2-Aminoisobutyric Acid; SITE 12: note = L-ornithine; SITE 13: note = alpha-methyl-leucine; SITE 17: note = Lysine is chemically modified through conjugation of the epsilon-amino group of the Lysine side chain with (2-[2-(2-Amino-ethoxy)-ethoxy]-acetyl)2-(gamma-Glu)
[1]
  Relative cAMP EC50: 5 nM
  cAMP Rel EC50 (in the presence of 1% HSA): 887 nM
[2]
  Relative cAMP EC50: 0.152 nM
  cAMP Rel EC50 (in the presence of 1% HSA): 15.7 nM
[3]
  Relative cAMP EC50: 8.51 nM
  cAMP Rel EC50 (in the presence of 1% HSA): 2680 nM

B8: Example 275 (peptide)
chain: YXQGTFTSDXSXXLDKKAQXAFIEYLLEAGPSSXAPPPSGT
modifications: synthetic construct; SITE 2: note = 2-Aminoisobutyric Acid; SITE 10: note = 3-(4-Pyridyl)-L-alanine; SITE 12: note = L-ornithine; SITE 13: note = alpha-methyl-leucine; SITE 17: note = Lysine is chemically modified through conjugation of the epsilon-amino group of the Lysine side chain with (2-[2-(2-
[1]
  Relative cAMP EC50: 4.93 nM
  cAMP Rel EC50 (in the presence of 1% HSA): 692 nM
[2]
  Relative cAMP EC50: 0.318 nM
  cAMP Rel EC50 (in the presence of 1% HSA): 27.7 nM
[3]
  Relative cAMP EC50: 7.8 nM
  cAMP Rel EC50 (in the presence of 1% HSA): 882 nM

B9: Example 283 (peptide)
chain: YXQGTFTSDXSKXLDKKAQXAFIEYLIEAGESSGAPPPSGS
modifications: synthetic construct; SITE 2: note = 2-Aminoisobutyric Acid; SITE 10: note = 3-(4-Pyridyl)-L-alanine; SITE 13: note = alpha-methyl-leucine; SITE 17: note = Lysine is chemically modified through conjugation of the epsilon-amino group of the Lysine side chain with (2-[2-(2-Amino-ethoxy)-ethoxy]-acetyl)
[1]
  Relative cAMP EC50: 1.16 nM
  cAMP Rel EC50 (in the presence of 1% HSA): 233 nM
[2]
  Relative cAMP EC50: 0.225 nM
  cAMP Rel EC50 (in the presence of 1% HSA): 47.2 nM
[3]
  Relative cAMP EC50: 9.73 nM
  cAMP Rel EC50 (in the presence of 1% HSA): 1470 nM

B10: Example 281 (peptide)
chain: YXQGTFTSDXSKXLDKKAQXAFIEYLIEXGESSGEPPPSGE
modifications: synthetic construct; SITE 2: note = 2-Aminoisobutyric Acid; SITE 10: note = 3-(4-Pyridyl)-L-alanine; SITE 13: note = alpha-methyl-leucine; SITE 17: note = Lysine is chemically modified through conjugation of the epsilon-amino group of the Lysine side chain with (2-[2-(2-Amino-ethoxy)-ethoxy]-acetyl)
[1]
  Relative cAMP EC50: 1.6 nM
  cAMP Rel EC50 (in the presence of 1% HSA): 295 nM
[2]
  Relative cAMP EC50: 0.154 nM
  cAMP Rel EC50 (in the presence of 1% HSA): 25.8 nM
[3]
  Relative cAMP EC50: 13.7 nM
  cAMP Rel EC50 (in the presence of 1% HSA): 1370 nM

B11: Example 284 (peptide)
chain: YXQGTFTSDXSKXLDKKAQXAFIEYLIEAGESSGEPPPSGS
modifications: synthetic construct; SITE 2: note = 2-Aminoisobutyric Acid; SITE 10: note = 3-(4-Pyridyl)-L-alanine; SITE 13: note = alpha-methyl-leucine; SITE 17: note = Lysine is chemically modified through conjugation of the epsilon-amino group of the Lysine side chain with (2-[2-(2-Amino-ethoxy)-ethoxy]-acetyl)
[1]
  Relative cAMP EC50: 1.54 nM
  cAMP Rel EC50 (in the presence of 1% HSA): 271 nM
[2]
  Relative cAMP EC50: 0.347 nM
  cAMP Rel EC50 (in the presence of 1% HSA): 59.8 nM
[3]
  Relative cAMP EC50: 9.21 nM
  cAMP Rel EC50 (in the presence of 1% HSA): 1530 nM

Source: patent publication US20240270821A1, “GIP/GLP1/GCG TRI-RECEPTOR AGONISTS AND USES THEREOF” (priority 2023, published 2024)
